The values below come from PMC12040988, “GET3B is involved in chloroplast biogenesis and interacts with the thylakoidal ALB3 and ALB4 insertases” (Plant Cell Reports, 2025).

For this assay, the target named is T1, GST-tagged mature full-length GET3b (GST-Get3b) (Arabidopsis thaliana, UniProt A1L4Y1 68-411).
T1 construct: The results say 'GET3B C-terminally fused to GST'; The name GST-Get3b and the vector pGex-4T-3 fit GST at the N-terminus; also called AtGET3B; source: E. coli Rosetta2(DE3), purified (glutathione-sepharose); not shown: GST, N-terminal, kept
T1 sequence (looked up): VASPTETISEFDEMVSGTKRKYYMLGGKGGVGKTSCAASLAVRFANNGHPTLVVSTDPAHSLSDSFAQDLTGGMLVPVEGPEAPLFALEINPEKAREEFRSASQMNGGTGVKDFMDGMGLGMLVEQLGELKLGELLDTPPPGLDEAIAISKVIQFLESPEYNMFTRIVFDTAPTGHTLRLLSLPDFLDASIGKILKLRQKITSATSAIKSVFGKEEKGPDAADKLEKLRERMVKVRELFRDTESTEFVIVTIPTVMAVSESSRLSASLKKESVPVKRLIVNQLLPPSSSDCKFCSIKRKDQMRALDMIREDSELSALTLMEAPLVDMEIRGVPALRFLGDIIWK
Briefly: pull-down; 50 μg GST-Get3b (or GST) with 20 μg Alb3C-His or Alb4C-His in 120 μl 1x PBS, 10 min at room temperature; held on glutathione resin 30 min, washed with 5 ml PBS, eluted with 10 mM reduced glutathione; immunoblot with antibodies against Alb3, Alb4 or GST. The conditions noted are these: both partners purified. A general note: Immunoblotting shows a protein as a band on a membrane.

B1: His-tagged C-terminal region of ALB3 (Alb3C-His) (domain or fragment, Arabidopsis thaliana, UniProt Q8LBP4 350-462, looked up)
chain: VYLRKLGGAKPNMDENASKIISAGRAKRSIAQPDDAGERFRQLKEQEKRSKKNKAVAKDTVELVEESQSESEEGSDDEEEEAREGALASSTTSKPLPEVGQRRSKRSKRKRTV
notes: ALB3 of Arabidopsis thaliana, stromal C-terminal region, aa 350-462; also called Alb3-His; source: E. coli Rosetta2(DE3), purified (nickel-nitrilotriacetic acid); not shown: His tag, C-terminal, kept
Consider B1, for which the binding result was “binds”.

B2: His-tagged C-terminal region of ALB4 (Alb4C-His) (domain or fragment, Arabidopsis thaliana, UniProt Q9FYL3 334-499, looked up)
chain: VWLQKYGGAKNPVEKFTNLVTKEDKTQQIEKSFSEPLVQKSVSELKIPREKGGEKVTPECPKPGERFRLLKEQEAKRRREKEERQKAEAALSNQNTDKAHEQDEKSDTAIVAEDDKKTELSAVDETSDGTVAVNGKPSIQKDETTNGTFGIGHDTEQQHSHETEKR
notes: ALB4 (STIC1) of Arabidopsis thaliana, stromal C-terminal region, aa 334-499; source: E. coli Rosetta2(DE3), purified (nickel-nitrilotriacetic acid); not shown: His tag, C-terminal, kept
B2: the binding result is listed as “binds”.
